B1: RBD-R3-E1-F5 Ab (Ab_36) (scFv, V domains shown)
VH: QVQLQQSGPGLVKPSQTLSLTCAIFGDSVTSNSAAWNWIRQSPSRGLEWLGRTYYSSKWYNDYAVSVKSRVTINADTSKNQLSLQLNSVTPEDTAVYYCARGWLRLSFDPWGQGTLVTVSS
VL: NFMLTQPHSVSESPGKTVTISCTGSSGSIASNYVQWLQQRLGSAPTTVIYEDNQRPSGVPDRFSGSIDSSSNSASLTISGLKTEDEADYYCQSYDPNNHGVVFGGGTKLTVL
B2: Ab 14 IgG (antibody, V domains shown)
VH: QVQLQQSGPGLVKPSQTLSLTCAISGDSVSSNSAAWNWIRQSPARGLEWLGRTYYRSRWYNDYAISMKSRITINPDTSKNQFSLQLESVTPEDTAVYYCAREIRGFDYWGQGTLVTVSS
VL: QSVLTQPPSASGSPGQSVTISCTGTSSDVGAYNFVSWYQHHPGKAPKLIIYDFNKRPSGVPDRFSGSKSGNTASLTVSGLQADDEADYYCSSYAGSNNFDVVFGGGTKLTVL
B3: Ab 38 (scFv, V domains shown)
VH: QVTLKESGPTLVKPTQTLTLTCTFSGFSLTTSGVSVGWIRQPPGKALEWLALIHWDDDKRYSPSLRSRLTITRDTSKNQVVLTVTDMDPADTGTYYCASFIMTVYAEYFEDWGQGTLVTVSS
VL: EIVLTQSPATLSVSPGERATLSCRASQSVSSNLAWYQQKPGQAPRLLMYDVSTRATGIPARFSGSGSGTEFSLTISSLQSEDFAVYYCQQRGAWPLTFGGGTKVEIK
B4: S1-RBD-R3-T1-G1 Ab (Ab_35) (scFv, V domains shown)
VH: EVQLVQSGAEVKKPGESLRISCKASGYSFTSNWIGWVRQMPGKGLEWMGSIFPGDSDTKYSPSFQGQVTISADRSISTAYLQWSGLKASDTAMYYCARESYNAYGSWGQGTLVTVSS
VL: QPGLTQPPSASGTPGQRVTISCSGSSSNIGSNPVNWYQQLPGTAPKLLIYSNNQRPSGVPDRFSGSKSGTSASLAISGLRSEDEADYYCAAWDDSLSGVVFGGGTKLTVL
B5: S1-R3-T1-H7 (Ab12) (scFv, V domains shown)
VH: EVQLVESGPGVVSPSATLFLTCSVSGGSIRTHSWNWIRQPPGKPLEWIGFIHHSGATNKNPSLKSRVTISSDTSKNEFSLTLTSVTAADTAVYYCARGPGILSYWSRGTLVTVSS
VL: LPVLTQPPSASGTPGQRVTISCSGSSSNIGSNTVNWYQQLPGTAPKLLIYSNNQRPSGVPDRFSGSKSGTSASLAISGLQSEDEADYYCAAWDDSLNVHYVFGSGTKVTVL
B6: S1-RBD-R3-E1-E8 Ab (Ab 37) (scFv, V domains shown)
VH: QVQLVQSGAEVKKPGASVKVSCKASGYTFTSYGISWVRQAPGQGLEWMGWISTYNGNTNYAQKLQGRVTMTTDTSTSTAYMEVRSLRSDDTAVYYCARDVFGHFDYWGQGTLVTVSS
VL: NFMLTQPHSVSESPGKTVLISCTRSSGNIATNYVQWYQQRPGSAPTTVIYEDNQRPSGVPDRFSGSIDSSSNSASLTISGLKTEDEADYYCKSYDDGNHVFGGGTKLTVL
B7: S1-RBD-R3-T1-F9 Ab (Ab_39) (scFv, V domains shown)
VH: QVTLKESGPTLVKPTQTLTLTCTLSGVSLDTIGMRVSWIRQPPGKALEWLARIDWDDDKFYSTALKTRLTISKDTSKNQVVFTMTSMDPVDTATYYCARSGLLYDLDVWGRGTLVTVSS
VL: QSVVTQPPSVSGAPGQRVTISCTGSDSDIGANFVQWYQQLPGTAPKLLIWRNTNRPSGVPDRFSASKSGTSASLAITGLQAEDEADYFCQSYDSSLSAYVFGGGTKVTVL

Legend:
WT Spike [1] = target: WT Spike (SARS-CoV2, UniProt P0DTC2 16-1213)
[2] = target: spike protein on live SARS-CoV-2 (isolate USA-WA1/2020) (SARS-CoV2, UniProt P0DTC2 14-1273); assay: cell-based or functional assay
WT Spike [3] = target: WT Spike (SARS-CoV-2, UniProt P0DTC2 16-1213)

| Binder | Kd (WT Spike [1]) [pM] | also measured |
| --- | --- | --- |
| B1 | 9.01 | – |
| B2 | – | shift of the neutralization IC50 of the IgG against the scFv-Fc [2]: 40 fold |
| B3 | 7.86 | – |
| B4 | 8.9 | – |
| B5 | – | Kd (WT Spike [3]): 8.31 pM |
| B6 | 9 | – |
| B7 | 2.04 | – |

Reference: patent publication US20230374114A1 (Dana-Farber, published 2023)
